Earlier results on one substance are cited in publication PMC10818705.

By pKa is commonly meant the pH at which an ionisable group is half protonated.

For the series, the target named is Tyr109 (UniProt position 129, EGEHFYFFCTF).

As for “Azurin, His107/Tyr109 (Lys122) hopping variant (Pseudomonas aeruginosa; W48F;Y72F;Y108F;H83Q;Q107H;M109Y)”, the pKa is reported as 10.2 ± 0.3.
